{"source": "patent US12679878B2", "about": "“CRF2 receptor agonists and their use in therapy” (SANOFI, priority 2020, dated 2026)", "binders": {"B1": {"name": "peptide of SEQ ID NO: 24 (peptide)", "peptide": "IVLSLD[dV]PTKLK([AEEA-AEEA-γGlu-C18 diacid])QKLLKQERQRKEREQAEKNKRILERV-NH2", "modifications": "N-terminus assumed", "SMILES": "CC[C@H](C)[C@H](N)C(=O)N[C@H](C(=O)N[C@@H](CC(C)C)C(=O)N[C@@H](CO)C(=O)N[C@@H](CC(C)C)C(=O)N[C@@H](CC(=O)O)C(=O)N[C@@H](C(=O)N1CCC[C@H]1C(=O)N[C@H](C(=O)N[C@@H](CCCCN)C(=O)N[C@@H](CC(C)C)C(=O)N[C@@H](CCCCNC(=O)COCCOCCNC(=O)COCCOCCNC(=O)CC[C@H](NC(=O)CCCCCCCCCCCCCCCCC(=O)O)C(=O)O)C(=O)N[C@@H](CCC(N)=O)C(=O)N[C@@H](CCCCN)C(=O)N[C@@H](CC(C)C)C(=O)N[C@@H](CC(C)C)C(=O)N[C@@H](CCCCN)C(=O)N[C@@H](CCC(N)=O)C(=O)N[C@@H](CCC(=O)O)C(=O)N[C@@H](CCCNC(=N)N)C(=O)N[C@@H](CCC(N)=O)C(=O)N[C@@H](CCCNC(=N)N)C(=O)N[C@@H](CCCCN)C(=O)N[C@@H](CCC(=O)O)C(=O)N[C@@H](CCCNC(=N)N)C(=O)N[C@@H](CCC(=O)O)C(=O)N[C@@H](CCC(N)=O)C(=O)N[C@@H](C)C(=O)N[C@@H](CCC(=O)O)C(=O)N[C@@H](CCCCN)C(=O)N[C@@H](CC(N)=O)C(=O)N[C@@H](CCCCN)C(=O)N[C@@H](CCCNC(=N)N)C(=O)N[C@H](C(=O)N[C@@H](CC(C)C)C(=O)N[C@@H](CCC(=O)O)C(=O)N[C@@H](CCCNC(=N)N)C(=O)N[C@H](C(N)=O)C(C)C)[C@@H](C)CC)[C@@H](C)O)C(C)C)C(C)C"}, "B2": {"name": "peptide of SEQ ID NO: 39 (peptide)", "peptide": "IVLSLDVPIKLK([AEEA-AEEA-γGlu-C18 diacid])QILLEQERQRKERQQAETNAQILAQV-NH2", "modifications": "N-terminus assumed", "SMILES": "CC[C@H](C)[C@H](N)C(=O)N[C@H](C(=O)N[C@@H](CC(C)C)C(=O)N[C@@H](CO)C(=O)N[C@@H](CC(C)C)C(=O)N[C@@H](CC(=O)O)C(=O)N[C@H](C(=O)N1CCC[C@H]1C(=O)N[C@H](C(=O)N[C@@H](CCCCN)C(=O)N[C@@H](CC(C)C)C(=O)N[C@@H](CCCCNC(=O)COCCOCCNC(=O)COCCOCCNC(=O)CC[C@H](NC(=O)CCCCCCCCCCCCCCCCC(=O)O)C(=O)O)C(=O)N[C@@H](CCC(N)=O)C(=O)N[C@H](C(=O)N[C@@H](CC(C)C)C(=O)N[C@@H](CC(C)C)C(=O)N[C@@H](CCC(=O)O)C(=O)N[C@@H](CCC(N)=O)C(=O)N[C@@H](CCC(=O)O)C(=O)N[C@@H](CCCNC(=N)N)C(=O)N[C@@H](CCC(N)=O)C(=O)N[C@@H](CCCNC(=N)N)C(=O)N[C@@H](CCCCN)C(=O)N[C@@H](CCC(=O)O)C(=O)N[C@@H](CCCNC(=N)N)C(=O)N[C@@H](CCC(N)=O)C(=O)N[C@@H](CCC(N)=O)C(=O)N[C@@H](C)C(=O)N[C@@H](CCC(=O)O)C(=O)N[C@H](C(=O)N[C@@H](CC(N)=O)C(=O)N[C@@H](C)C(=O)N[C@@H](CCC(N)=O)C(=O)N[C@H](C(=O)N[C@@H](CC(C)C)C(=O)N[C@@H](C)C(=O)N[C@@H](CCC(N)=O)C(=O)N[C@H](C(N)=O)C(C)C)[C@@H](C)CC)[C@@H](C)O)[C@@H](C)CC)[C@@H](C)CC)C(C)C)C(C)C"}, "B3": {"name": "peptide of SEQ ID NO: 15 (peptide)", "peptide": "FTLSLDVPTKIK([γGlu-Palmitoyl])QKLFKQAKQKKQRQKAKTNAQILARV-NH2", "modifications": "N-terminus assumed", "SMILES": "CCCCCCCCCCCCCCCC(=O)N[C@@H](CCC(=O)NCCCC[C@H](NC(=O)[C@@H](NC(=O)[C@H](CCCCN)NC(=O)[C@@H](NC(=O)[C@@H]1CCCN1C(=O)[C@@H](NC(=O)[C@H](CC(=O)O)NC(=O)[C@H](CC(C)C)NC(=O)[C@H](CO)NC(=O)[C@H](CC(C)C)NC(=O)[C@@H](NC(=O)[C@@H](N)Cc1ccccc1)[C@@H](C)O)C(C)C)[C@@H](C)O)[C@@H](C)CC)C(=O)N[C@@H](CCC(N)=O)C(=O)N[C@@H](CCCCN)C(=O)N[C@@H](CC(C)C)C(=O)N[C@@H](Cc1ccccc1)C(=O)N[C@@H](CCCCN)C(=O)N[C@@H](CCC(N)=O)C(=O)N[C@@H](C)C(=O)N[C@@H](CCCCN)C(=O)N[C@@H](CCC(N)=O)C(=O)N[C@@H](CCCCN)C(=O)N[C@@H](CCCCN)C(=O)N[C@@H](CCC(N)=O)C(=O)N[C@@H](CCCNC(=N)N)C(=O)N[C@@H](CCC(N)=O)C(=O)N[C@@H](CCCCN)C(=O)N[C@@H](C)C(=O)N[C@@H](CCCCN)C(=O)N[C@H](C(=O)N[C@@H](CC(N)=O)C(=O)N[C@@H](C)C(=O)N[C@@H](CCC(N)=O)C(=O)N[C@H](C(=O)N[C@@H](CC(C)C)C(=O)N[C@@H](C)C(=O)N[C@@H](CCCNC(=N)N)C(=O)N[C@H](C(N)=O)C(C)C)[C@@H](C)CC)[C@@H](C)O)C(=O)O"}, "B4": {"name": "peptide of SEQ ID NO: 46 (peptide)", "peptide": "IVLSLDVPIKLK([AEEA-AEEA-γGlu-C18 diacid])QILLEQAKQK[Aib]LRAQAETNVRILERV-NH2", "modifications": "N-terminus assumed", "SMILES": "CC[C@H](C)[C@H](N)C(=O)N[C@H](C(=O)N[C@@H](CC(C)C)C(=O)N[C@@H](CO)C(=O)N[C@@H](CC(C)C)C(=O)N[C@@H](CC(=O)O)C(=O)N[C@H](C(=O)N1CCC[C@H]1C(=O)N[C@H](C(=O)N[C@@H](CCCCN)C(=O)N[C@@H](CC(C)C)C(=O)N[C@@H](CCCCNC(=O)COCCOCCNC(=O)COCCOCCNC(=O)CC[C@H](NC(=O)CCCCCCCCCCCCCCCCC(=O)O)C(=O)O)C(=O)N[C@@H](CCC(N)=O)C(=O)N[C@H](C(=O)N[C@@H](CC(C)C)C(=O)N[C@@H](CC(C)C)C(=O)N[C@@H](CCC(=O)O)C(=O)N[C@@H](CCC(N)=O)C(=O)N[C@@H](C)C(=O)N[C@@H](CCCCN)C(=O)N[C@@H](CCC(N)=O)C(=O)N[C@@H](CCCCN)C(=O)NC(C)(C)C(=O)N[C@@H](CC(C)C)C(=O)N[C@@H](CCCNC(=N)N)C(=O)N[C@@H](C)C(=O)N[C@@H](CCC(N)=O)C(=O)N[C@@H](C)C(=O)N[C@@H](CCC(=O)O)C(=O)N[C@H](C(=O)N[C@@H](CC(N)=O)C(=O)N[C@H](C(=O)N[C@@H](CCCNC(=N)N)C(=O)N[C@H](C(=O)N[C@@H](CC(C)C)C(=O)N[C@@H](CCC(=O)O)C(=O)N[C@@H](CCCNC(=N)N)C(=O)N[C@H](C(N)=O)C(C)C)[C@@H](C)CC)C(C)C)[C@@H](C)O)[C@@H](C)CC)[C@@H](C)CC)C(C)C)C(C)C"}}, "key": {"rat CRF2R α receptor": {"biological_target": "rat CRF2R α receptor (rat, UniProt P47866 20-411)", "sequence (P47866 20-411)": "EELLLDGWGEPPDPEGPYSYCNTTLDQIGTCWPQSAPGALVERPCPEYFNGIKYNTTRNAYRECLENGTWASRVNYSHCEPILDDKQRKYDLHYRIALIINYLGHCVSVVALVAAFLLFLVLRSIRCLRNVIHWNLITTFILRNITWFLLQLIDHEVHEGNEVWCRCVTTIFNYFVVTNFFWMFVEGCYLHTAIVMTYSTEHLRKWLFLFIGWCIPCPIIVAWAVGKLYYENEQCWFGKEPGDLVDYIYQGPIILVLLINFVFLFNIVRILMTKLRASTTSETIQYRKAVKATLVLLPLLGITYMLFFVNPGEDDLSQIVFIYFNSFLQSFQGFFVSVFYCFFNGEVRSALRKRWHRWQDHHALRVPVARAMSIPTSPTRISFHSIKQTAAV", "experiment": "cell-based or functional assay"}, "[1]": {"biological_target": "T1, anti-target CRF1R receptor (UniProt P34998 24-415, limits assumed)", "T1 sequence (looked up)": "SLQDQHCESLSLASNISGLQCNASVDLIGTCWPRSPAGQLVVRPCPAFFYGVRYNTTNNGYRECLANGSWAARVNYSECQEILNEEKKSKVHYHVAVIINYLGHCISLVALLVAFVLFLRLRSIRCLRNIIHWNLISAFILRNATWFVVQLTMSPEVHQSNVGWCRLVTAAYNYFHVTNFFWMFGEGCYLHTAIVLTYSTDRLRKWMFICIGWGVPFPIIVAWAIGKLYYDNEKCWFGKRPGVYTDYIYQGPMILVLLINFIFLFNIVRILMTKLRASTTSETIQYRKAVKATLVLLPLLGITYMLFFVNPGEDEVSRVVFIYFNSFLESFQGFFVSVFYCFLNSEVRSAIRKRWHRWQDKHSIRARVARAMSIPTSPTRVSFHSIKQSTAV", "experiment": "cell-based or functional assay"}}, "note": "Starred links: 1 amine or outer side, 2 acyl side, 3 side chain; linkers in the order of their positions; H or OH if unused. Non-standard residues stand in square brackets, D forms with d. Groups on a side chain read outwards from the residue. No end group written: not given here. *: point of attachment. C18 diacid = O=C(O)CCCCCCCCCCCCCCCCC(=O)*; γGlu = O=C(O)[C@H](CCC(=O)[*:2])N[*:1]; Palmitoyl = CCCCCCCCCCCCCCCC(=O)*; AEEA = NCCOCCOCC(=O)O; Aib = CC(C)(N)C(=O)O", "data": [{"binder": "B1", "values": [{"measurement": "EC50 [nM], 0% HSA (cAMP, A7R5 cells)", "setting": "rat CRF2R α receptor", "value": 4.94, "unit": "nM"}, {"measurement": "EC50[nM] 0% HSA (cAMP, CRF1R-overexpression CHO cells)", "setting": "[1]", "value": "> 1000", "unit": "nM"}, {"measurement": "Emax (%) (cAMP, CRF1R-overexpression CHO cells)", "setting": "[1]", "value": 1.48, "unit": "%"}]}, {"binder": "B2", "values": [{"measurement": "EC50 [nM], 0% HSA (cAMP, A7R5 cells)", "setting": "rat CRF2R α receptor", "value": 2.04, "unit": "nM"}, {"measurement": "EC50[nM] 0% HSA (cAMP, CRF1R-overexpression CHO cells)", "setting": "[1]", "value": "> 1000", "unit": "nM"}, {"measurement": "Emax (%) (cAMP, CRF1R-overexpression CHO cells)", "setting": "[1]", "value": 13.3, "unit": "%"}]}, {"binder": "B3", "values": [{"measurement": "EC50 [nM], 0% HSA (cAMP, A7R5 cells)", "setting": "rat CRF2R α receptor", "value": 1.38, "unit": "nM"}, {"measurement": "EC50[nM] 0% HSA (cAMP, CRF1R-overexpression CHO cells)", "setting": "[1]", "value": "> 1000", "unit": "nM"}, {"measurement": "Emax (%) (cAMP, CRF1R-overexpression CHO cells)", "setting": "[1]", "value": 7.75, "unit": "%"}]}, {"binder": "B4", "values": [{"measurement": "EC50 [nM], 0% HSA (cAMP, A7R5 cells)", "setting": "rat CRF2R α receptor", "value": 8.97, "unit": "nM"}, {"measurement": "EC50[nM] 0% HSA (cAMP, CRF1R-overexpression CHO cells)", "setting": "[1]", "value": "> 1000", "unit": "nM"}, {"measurement": "Emax (%) (cAMP, CRF1R-overexpression CHO cells)", "setting": "[1]", "value": 5.88, "unit": "%"}]}]}
